Assay results reported in patent publication US20190062438A1 (CSL, published 2019).
“And” between values parts separate entries of the source, which are not always exact repeats. Equal entries are not always repeated.

Key:
[1] = biological target: shCD131 alanine mutants of Ser102, Val104 and Arg364; assay: SPR, Fab over captured mutant
[2] = biological target: T1, soluble Homo sapiens CD131 comprising a C-terminal 6xHis tag (human, UniProt P32927 17-438); assay: SPR, kinetics, Fab over captured shCD131
T1 construct: truncated after Ser438, C-terminal 6xHis; also called shCD131; shβc
T1 sequence: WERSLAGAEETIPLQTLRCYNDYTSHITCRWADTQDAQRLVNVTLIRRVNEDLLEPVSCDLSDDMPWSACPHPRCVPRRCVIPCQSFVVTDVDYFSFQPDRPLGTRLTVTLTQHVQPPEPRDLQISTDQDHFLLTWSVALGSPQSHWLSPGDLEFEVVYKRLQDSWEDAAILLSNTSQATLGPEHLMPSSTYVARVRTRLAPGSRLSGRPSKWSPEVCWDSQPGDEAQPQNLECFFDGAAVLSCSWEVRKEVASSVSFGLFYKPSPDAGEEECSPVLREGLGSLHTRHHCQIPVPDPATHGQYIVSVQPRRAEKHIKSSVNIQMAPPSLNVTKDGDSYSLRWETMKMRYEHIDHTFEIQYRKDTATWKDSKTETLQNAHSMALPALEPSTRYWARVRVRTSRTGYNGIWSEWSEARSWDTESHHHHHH

shCD131 H367A = biological target: T2, shCD131 H367A (human, UniProt P32927 17-438); assay: SPR, steady state, Fab over captured mutant
T2 construct: C-terminal 6xHis
T2 sequence: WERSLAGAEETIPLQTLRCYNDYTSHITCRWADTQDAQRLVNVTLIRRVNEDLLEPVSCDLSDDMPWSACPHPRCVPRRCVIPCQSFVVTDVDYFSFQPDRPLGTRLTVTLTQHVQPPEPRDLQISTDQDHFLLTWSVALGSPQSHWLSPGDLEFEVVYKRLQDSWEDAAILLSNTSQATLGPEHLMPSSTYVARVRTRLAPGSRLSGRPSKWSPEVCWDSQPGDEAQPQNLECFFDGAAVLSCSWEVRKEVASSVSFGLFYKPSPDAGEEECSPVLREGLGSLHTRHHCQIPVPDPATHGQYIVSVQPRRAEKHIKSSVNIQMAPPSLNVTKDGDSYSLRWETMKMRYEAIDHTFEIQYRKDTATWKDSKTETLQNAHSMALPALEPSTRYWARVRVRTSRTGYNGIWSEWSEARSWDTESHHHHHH
Protocol: (§1) For some analysis purified Fab was injected over each flow cell for 3 minutes and dissociation was monitored for a further 10 minutes. Regeneration of the surface was performed after each cycle with a 40 second injection of 25 mM glycine, pH 2.0. The analysis was performed with Fabs at several concentrations between 100 and 0.31 nM, with each concentration analyzed twice and in random order. The analysis was performed at a flow rate of 30 μl/min in HBS-EP buffer (10 mM Hepes, 150 mM NaCl, 3 mM EDTA, 0.005% Tween 20, pH 7.4) at 37° C. Responses from spots 2 and 4 of each flow cell, (in which shβc was not captured, but otherwise treated identically), were subtracted from those of spots 1 and 5 respectively to produce reference subtracted data. Reference subtracted responses from a blank injection comprising buffer alone were subtracted from the resultant sensorgrams to produce double referenced data suitable for kinetic analysis. Double-referenced sensorgrams were fitted using non-linear regression to a model describing 1:1 kinetics, including a term for mass transport limitation. The Rₘₐₓ value was fitted locally to account for slight deviations in the level of sCD131 captured, with association rate (kₐ), dissociation rate (kd) and equilibrium dissociation constant (KD) fitted globally.
(§2) Mapping of the shCD131 epitope was performed by measurement of the affinity of Fabs for various alanine point mutants of shCD131 essentially as described above, with the following exceptions. Each shCD131 mutant was captured for 120 seconds at concentrations between 1 and 5 μg/ml. For kinetic analysis, purified recombinant Fabs were injected for 2 minutes, and dissociation was monitored for a further 2 minutes. […] Fab concentrations ranged from 16 μM to 3.9 nM in two-fold dilutions. The assays were conducted at 25° C. All sensorgrams were reference subtracted as described above. For determination of steady-state affinity (KD only), the response at the end of the binding phase was used to fit the data to a single-site binding model. Kinetic parameters were determined as described above.

shCD131 I368A = biological target: T3, shCD131 I368A (human, UniProt P32927 17-438); assay: SPR, steady state, Fab over captured mutant
T3 construct: C-terminal 6xHis
T3 sequence: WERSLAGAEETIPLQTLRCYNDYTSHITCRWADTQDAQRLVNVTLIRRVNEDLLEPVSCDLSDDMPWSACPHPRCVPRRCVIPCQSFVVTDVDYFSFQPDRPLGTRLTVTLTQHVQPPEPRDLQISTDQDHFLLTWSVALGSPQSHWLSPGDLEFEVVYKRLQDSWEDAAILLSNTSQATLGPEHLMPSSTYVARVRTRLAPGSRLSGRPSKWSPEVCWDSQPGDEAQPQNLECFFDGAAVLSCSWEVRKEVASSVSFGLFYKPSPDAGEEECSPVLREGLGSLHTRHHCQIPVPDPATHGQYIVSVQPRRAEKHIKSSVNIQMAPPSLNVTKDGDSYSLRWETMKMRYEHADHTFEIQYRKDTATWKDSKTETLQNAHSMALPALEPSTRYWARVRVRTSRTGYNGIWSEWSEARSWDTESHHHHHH
Protocol: as §1, §2

shCD131 S102A = biological target: T4, shCD131 S102A (human, UniProt P32927 17-438); assay: SPR, steady state, Fab over captured mutant
T4 construct: C-terminal 6xHis
T4 sequence: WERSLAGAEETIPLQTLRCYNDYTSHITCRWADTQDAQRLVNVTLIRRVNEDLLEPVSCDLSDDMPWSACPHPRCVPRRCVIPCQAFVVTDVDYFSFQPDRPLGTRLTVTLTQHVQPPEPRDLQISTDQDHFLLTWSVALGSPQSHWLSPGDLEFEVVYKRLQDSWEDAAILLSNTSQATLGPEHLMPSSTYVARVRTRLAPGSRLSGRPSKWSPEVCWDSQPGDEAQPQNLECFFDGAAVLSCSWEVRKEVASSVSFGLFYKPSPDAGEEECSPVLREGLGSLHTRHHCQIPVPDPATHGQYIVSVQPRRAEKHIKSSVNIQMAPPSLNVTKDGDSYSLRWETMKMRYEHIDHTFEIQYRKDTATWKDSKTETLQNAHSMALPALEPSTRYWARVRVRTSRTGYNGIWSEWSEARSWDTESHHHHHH
Protocol: as §1, §2

fold reduction of binding relative to WT shCD131 [1]: 3 to 7 fold
Kd [2]: 0.049 µM
Kd (shCD131 H367A): 10.3 µM and 10.8 µM
Kd (shCD131 I368A): 4.77 µM
Kd (shCD131 S102A): 0.324 µM
B1: 9A2 Fab (Fab, V domains shown)
VH: EVQLLESGGGLVQPGGSLRLSCAASGFTFSHYHMLWVRQAPGKGLEWVSSIRSSGGFTYYADSVKGRFTISRDNSKNTLYLQMNSLRAEDTAVYYCARFYDSFFDIWGQGTMVTVSS
VL: DIQMTQSPSSVSASVGDRVTITCRASQGISSWLAWYQQKPGKAPKLLIYAASSLQSGVPSRFSGSGSGTDFTLTISSLQPEDFATYYCQQANSFPITFGQGTRLEIKR
notes: also called recombinant Fab of 9A2
